Measured values reported in patent US12723248 (Amgen, dated 2026).

Target: T1, human asialoglycoprotein receptor 1 (ASGR1) (human, UniProt P07306 1-291)
T1 construct: whole, on cells; The cells were fixed in formaldehyde before staining; also called hASGR1; HL-1
T1 sequence (looked up): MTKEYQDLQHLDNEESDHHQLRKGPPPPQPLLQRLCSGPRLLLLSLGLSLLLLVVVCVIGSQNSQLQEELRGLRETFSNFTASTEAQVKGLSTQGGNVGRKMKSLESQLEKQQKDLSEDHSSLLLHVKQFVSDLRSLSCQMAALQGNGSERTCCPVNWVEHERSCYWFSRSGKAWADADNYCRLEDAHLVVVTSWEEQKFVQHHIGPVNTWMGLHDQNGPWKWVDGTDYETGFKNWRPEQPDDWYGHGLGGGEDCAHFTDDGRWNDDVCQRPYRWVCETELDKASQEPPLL
Test: immunofluorescence on formaldehyde-fixed Hep3B or HepG2 cells, Alexa488 anti-human IgG secondary, high-content imaging
Experimental: The siRNA molecules in Tier 1 and Tier 2 screening sets were synthesized without chemical modifications. Each siRNA molecule was comprised of a 21 nucleotide sense strand and 21 nucleotide antisense strand that hybridized to form a duplex region of 19 base pairs with a 2 nucleotide overhang at the 3' end of each strand. The efficacy of each of the siRNA molecules in reducing ASGR1 expression was assessed using a 384-well format in vitro immunoassay, which quantifies levels of ASGR1 protein on the cell surface of Hep3B or HepG2 cells.
Transfection complexes of the siRNA molecules and RNAiMax transfection reagent (Life Technologies) in EMEM media (ATCC 30-2003) were prepared in 384-well plates in accordance with manufacturer's recommendations. Human hepatocellular carcinoma Hep3B (ATCC HB-8064) or HepG2 (ATCC HB-8065) cells in EMEM media supplemented with 10% fetal bovine serum and 1% antibiotic/antimycotic were added to each well. Cells were incubated for 4 days at 37° C. and 5% CO_2. […] Data was analyzed using Columbus image analysis software and GeneData Screener software to quantify several measures of ASGR1 protein levels, cell count, and cell morphology on a per cell and per well basis.

- binding result: binds
B1: anti-ASGR1 primary antibody (Amgen clone 7E11) (antibody, human IgG1, kappa, N297G, V domains shown)
VH: QVQLVESGGGVVQPGRSLRLSCAASGFTFSSFGMHWVRQAPGKGLEWVAIIWHDGSNKYYADSVKGRFTISRDNSKNTLYLQMSSLRAEDTAVYYCARDLSMGGMDVWGQGTTVTVSS
VL: DIQMTQSPSSLSASVGDRVTIACRASQNIISYLNWYQQKPGKAPKFLIYTASSLQSGVPSRFSGSGSGTDFTLTISSLQPEDFAIYYCQQTYSTPLTFGGGTKVEIKR
notes: It was used as a staining reagent and detected with an Alexa488-conjugated anti-human IgG secondary antibody
